The target in one data set is ESAT6 (UniProt P9WNK7 P9WNK7:1-95). Description: impedance biosensor, 10 pM protein in PBS. An excerpt: At this time, each protein was mixed at a concentration of 10 pM with PBS and used for detection.
Data set [1] concerns the target CFP10 (culture filtrate protein 10 kDa) (Mycobacterium tuberculosis H37Rv, UniProt P9WNK5 P9WNK5:1-100). In words: Cy3-aptamer binding to CFP10 on magnetic beads, fluorescence; 20 mM Tris, 50 mM NaCl, 5 mM KCl, 5 mM MgCl2, pH 8.0. As to conditions: tags: His6 tag, expressed from pET32a in E. coli BL21(DE3); label: Cy3 (fluorescence Kd assay). As for the experimental part:
400 pmole of CFP10 was mixed with 10 μL of magnetic beads, and then incubated in 100 μL of a binding buffer (20 mM Tris, 50 mM NaCl, 5 mM KCl, 5 mM MgCl₂, pH 8.0) for 1 hour. To separate unbound CFP10, washing was performed twice with a binding buffer. Subsequently, the resulting mixture was incubated together with various concentrations of a Cy3-labeled aptamer, and an unbound aptamer was removed by washing. The amount of Cy3-labeled ssDNA aptamer bound to the magnetic beads with CFP10 immobilized thereon was measured by fluorescence measurement (1420 Victor Multilabel counter, PerkinElmer, USA) by separating only Cy3-labeled ssDNA bound to CFP10. As a result, as shown in FIG. 3 and Table 2 below, the Kd value of the DNA aptamer having a CG6 base sequence was measured.

Consider one molecule from patent US20200325475, “DNA APTAMER […] BINDING TO CFP10, AND USE […]” (MD APTUS INC., published 2020).

As usually defined, the Kd is the equilibrium constant for the complex coming apart. A higher Kd goes with weaker binding.

Sequence of ESAT6 (P9WNK7 whole entry, one chain of several): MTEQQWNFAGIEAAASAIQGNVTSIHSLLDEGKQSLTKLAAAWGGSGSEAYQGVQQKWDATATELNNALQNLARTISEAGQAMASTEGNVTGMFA
Sequence of CFP10 (culture filtrate protein 10 kDa) (P9WNK5 whole entry, one chain of several): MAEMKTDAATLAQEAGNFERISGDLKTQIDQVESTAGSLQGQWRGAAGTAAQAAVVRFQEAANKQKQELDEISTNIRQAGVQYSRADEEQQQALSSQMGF

B1: CG6 (ssDNA)
DNA: CACCTAATACGACTCACTATAGCGGATCCGACCTAGGTTCAGAAGGCTTTCTATTTTCCCGGTGCCTCGCACTGGCTCGAACAAGCTTGC
As for B1, the binding result in the data set with ESAT6 is reported as “no binding”. The molecule also gave a Kd in data set [1] of 92.8 nM.
